Where two headings read alike, the source gives them in different places.
Key:
[1] = biological target: T1, naturally processed and presented SSX-2 protein on SSX-2+/HLA-A2+ target cells (human); assay: cell-based or functional assay
[2] = biological target: T1, naturally processed and presented SSX-2 …; assay: cell-based or functional assay; remark: listed apart in the source

Row | Binder | interferon-γ levels (pg/ml), co-culture with 293-A2-SSX2 cells [1] [pg/mL] | interferon-γ levels (pg/ml), co-culture with 624 mel cells [1] [pg/mL] | interferon-γ levels (pg/ml), co-culture with 938-A2 mel cells [1] [pg/mL] | interferon-γ levels (pg/ml), co-culture with 1300 mel cells [1] [pg/mL] | interferon-γ levels (pg/ml), co-culture with COS-A2-SSX2 cells [1] [pg/mL] | interferon-γ levels (pg/ml), co-culture with K562-A2- Erythroleukemia cells [1] [pg/mL] | interferon-γ levels (pg/ml), co-culture with SKOV3 Ovarian cells [1] [pg/mL] | interferon-γ levels (pg/ml), co-culture with Skmel 37 mel cells [1] [pg/mL] | interferon-γ levels (pg/ml), co-culture with U251 Glioma cells [1] [pg/mL] | interferon-γ levels (pg/ml), co-culture with 293-A2-SSX2 cells [2] [pg/mL] | interferon-γ levels (pg/ml), co-culture with 624 mel cells [2] [pg/mL] | interferon-γ levels (pg/ml), co-culture with 938-A2 mel cells [2] [pg/mL] | interferon-γ levels (pg/ml), co-culture with 1300 mel cells [2] [pg/mL] | interferon-γ levels (pg/ml), co-culture with COS-A2-SSX2 cells [2] [pg/mL] | interferon-γ levels (pg/ml), co-culture with K562-A2- Erythroleukemia cells [2] [pg/mL] | interferon-γ levels (pg/ml), co-culture with SKOV3 Ovarian cells [2] [pg/mL] | interferon-γ levels (pg/ml), co-culture with Skmel 37 cells [2] [pg/mL] | interferon-γ levels (pg/ml), co-culture with U251 Glioma cells [2] [pg/mL]
1 | SSX-2 TCR (HLA-A2 restricted TCR from a natural T cell clone, TRAV14/DV4*01 and TRBV15*02-CB1; expressed from the vector comprising SEQ ID NO: 27) (TCR) TCR alpha: MSLSSLLKVVTASLWLGPGIAQKITQTQPGMFVQEKEAVTLDCTYDTSDPSYGLFWYKQPSSGEMIFLIYQGSYDQQNATEGRYSLNFQKARKSANLVISASQLGDSAMYFCAMTSGFGNEKLTFGTGTRLTIIPNIQNPDPAVYQLRDSKSSDKSVCLFTDFDSQTNVSQSKDSDVYITDKTVLDMRSMDFKSNSAVAWSNKSDFACANAFNNSIIPEDTFFPSPESSCDVKLVEKSFETDTNLNFQNLSVIGFRILLLKVAGFNLLMTLRLWSS TCR beta: MGPGLLHWMALCLLGTGHGDAMVIQNPRYQVTQFGKPVTLSCSQTLNHNVMYWYQQKSSQAPKLLFHYYDKDFNNEADTPDNFQSRRPNTSFCFLDIRSPGLGDAAMYLCATSRGQGGQPQHFGDGTRLSILEDLNKVFPPEVAVFEPSEAEISHTQKATLVCLATGFFPDHVELSWWVNGKEVHSGVSTDPQPLKEQPALNDSRYCLSSRLRVSATFWQNPRNHFRCQVQFYGLSENDEWTQDRAKPVTQIVSAEAWGRADCGFTSVSYQQGVLSATILYEILLGKATLYAVLVSALVLMAMVKRKDF | 29800 | 27300 | 37000 | 2560 | 52600 | 12500 | 2410 | 6640 | 16700 | 52500 | 60200 | 46100 | 3160 | 85900 | 12800 | 11000 | 8940 | 22900
2 | codon-optimized SSX-2 TCR (expressed from the vector comprising SEQ ID NO: 29) (TCR) TCR alpha: MSLSSLLKVVTASLWLGPGIAQKITQTQPGMFVQEKEAVTLDCTYDTSDPSYGLFWYKQPSSGEMIFLIYQGSYDQQNATEGRYSLNFQKARKSANLVISASQLGDSAMYFCAMTSGFGNEKLTFGTGTRLTIIPNIQNPDPAVYQLRDSKSSDKSVCLFTDFDSQTNVSQSKDSDVYITDKTVLDMRSMDFKSNSAVAWSNKSDFACANAFNNSIIPEDTFFPSPESSCDVKLVEKSFETDTNLNFQNLSVIGFRILLLKVAGFNLLMTLRLWSS TCR beta: MGPGLLHWMALCLLGTGHGDAMVIQNPRYQVTQFGKPVTLSCSQTLNHNVMYWYQQKSSQAPKLLFHYYDKDFNNEADTPDNFQSRRPNTSFCFLDIRSPGLGDAAMYLCATSRGQGGQPQHFGDGTRLSILEDLNKVFPPEVAVFEPSEAEISHTQKATLVCLATGFFPDHVELSWWVNGKEVHSGVSTDPQPLKEQPALNDSRYCLSSRLRVSATFWQNPRNHFRCQVQFYGLSENDEWTQDRAKPVTQIVSAEAWGRADCGFTSVSYQQGVLSATILYEILLGKATLYAVLVSALVLMAMVKRKDF | 37500 | 37500 | 46300 | 2600 | 64100 | 21300 | 2530 | 8870 | 19200 | 49100 | 47100 | 51200 | 3050 | 138000 | 13600 | 22500 | 11400 | 21400
3 | codon-optimized human-mouse chimera SSX-2 TCR (codon-optimized SSX-2 TCR including mouse constant region; expressed from the vector comprising SEQ ID NO: 30) (TCR) TCR alpha: MSLSSLLKVVTASLWLGPGIAQKITQTQPGMFVQEKEAVTLDCTYDTSDPSYGLFWYKQPSSGEMIFLIYQGSYDQQNATEGRYSLNFQKARKSANLVISASQLGDSAMYFCAMTSGFGNEKLTFGTGTRLTIIPNDIQNPEPAVYQLKDPRSQDSTLCLFTDFDSQINVPKTMESGTFITDKTVLDMKAMDSKSNGAIAWSNQTSFTCQDIFKETNATYPSSDVPCDATLTEKSFETDMNLNFQNLSVMGLRILLLKVAGFNLLMTLRLWSS TCR beta: MGPGLLHWMALCLLGTGHGDAMVIQNPRYQVTQFGKPVTLSCSQTLNHNVMYWYQQKSSQAPKLLFHYYDKDFNNEADTPDNFQSRRPNTSFCFLDIRSPGLGDAAMYLCATSRGQGGQPQHFGDGTRLSILEDLRNVTPPKVSLFEPSKAEIANKQKATLVCLARGFFPDHVELSWWVNGKEVHSGVSTDPQAYKESNYSYCLSSRLRVSATFWHNPRNHFRCQVQFHGLSEEDKWPEGSPKPVTQNISAEAWGRACGITSSYQQGVLSATILYEILLGKATLYAVLVSTLVVMAMVKRKNS | 37300 | 47000 | 51100 | 2720 | 56900 | 17400 | 2220 | 10400 | 19000 | 47300 | 57700 | 40000 | 3460 | 164000 | 13600 | 9860 | 10600 | 20000

Source: patent US20160279196A1 (US Dept. of Health and Human Services, published 2016)
